These results are taken from PMC4267192.

This data set has as its target CCA1-GST (UniProt P92973). The data set is described as follows: EMSA. The conditions noted are these: 25 mM HEPES-KOH pH 7.5, 50 mM KCl, 2.5 mM DTT, 1 mM PMSF, 10% glycerol, 1 ug poly-dIdC in 10 ul, 20 min on ice (final concentrations calculated from 5X …).

CCA1-GST, sequence (P92973 whole entry): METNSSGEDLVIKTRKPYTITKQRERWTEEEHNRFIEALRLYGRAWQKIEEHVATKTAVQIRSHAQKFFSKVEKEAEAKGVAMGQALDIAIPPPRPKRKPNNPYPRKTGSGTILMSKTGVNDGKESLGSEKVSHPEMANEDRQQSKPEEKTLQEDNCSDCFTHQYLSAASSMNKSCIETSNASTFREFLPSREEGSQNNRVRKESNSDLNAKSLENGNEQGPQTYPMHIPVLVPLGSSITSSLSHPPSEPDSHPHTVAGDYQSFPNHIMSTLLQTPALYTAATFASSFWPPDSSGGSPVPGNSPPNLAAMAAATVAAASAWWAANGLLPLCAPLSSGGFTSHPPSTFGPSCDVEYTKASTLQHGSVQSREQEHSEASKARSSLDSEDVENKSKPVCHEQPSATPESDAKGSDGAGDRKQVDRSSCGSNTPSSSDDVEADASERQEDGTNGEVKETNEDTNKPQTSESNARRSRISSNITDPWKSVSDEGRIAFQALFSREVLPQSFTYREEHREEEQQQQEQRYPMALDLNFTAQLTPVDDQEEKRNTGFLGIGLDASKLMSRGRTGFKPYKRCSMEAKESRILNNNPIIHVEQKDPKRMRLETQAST

For “AATCAATTCCTCTCTCTTAAAACAAAGAAGAAAAAAACAGAGAAGAAGAAGAAAAAATCTATCTCCGCCATGAACGCGAGAGCTCTTCTTTGCTCTTCAAATATTCACTCTCTCTAC (double strand) [PHT4;1 promoter probe 3]”, the binding entry was “binds”.

In the case of “GTTAGCTTACGAGCATAAATTGCGAGATCTATCTTACTTCCCCAATGAAAAAAAAATCTCAAAGATTTGGAAGTAGACCTATGAATAGAATTACAATAATACGGCAATACCAATAACAA (double strand) [PHT4;1 promoter probe 2]”, the binding entry was “binds”.
